The values below come from paper PMC5376962.

This test concerns the target Burkholderia pseudomallei N-type ATPase c-subunit (atpE), assembled into the c17 rotor ring, expressed alone in E. coli (Burkholderia pseudomallei). The experiment in a line: cryo-EM structure.

For the substance “Burkholderia pseudomallei N-type ATPase c-subunit (atpE), assembled into the c17 rotor ring, expressed alone in E. coli (natural protein)”, the stoichiometry N was 17.

The term stoichiometry N denotes a count of units in the complex or per binding partner.
